{"source": "patent US20080193457A1", "about": "“Ra Antigenic Peptides” (priority 2003, published 2008)"}
{"molecular_target": "HLA-DRB1*0401 (Homo sapiens, UniProt P01903+P01911, A100K/A169T/F76Y/I96L/K127E/L162R/M171V/N62H/P40V/Q125Y/R42H/S133A/S149N/S66Y/V115G/V209L/W38E)", "experiment": "not given", "conditions": "reference peptides, literature (Table 1 footnote h); cited from earlier work"}
{"molecule": "M. tuberculosis Hsp65 (3-13) (KTIAYDEEARR; UniProt P9WPE7 3-13, looked up, fragment)", "HLA-DRB1*0401 binder": "weak HLA-DRB1*0401 binder"}
{"molecular_target": "T1, HLA-DR4 molecules (HLA-DRB1*0401), purified, detergent-solubilized (human)", "T1 construct": "mature; The text says HLA-DR4", "experiment": "in vitro competition binding assay: purified HLA-DR4, biotinylated HA(307-319) reporter, synthetic competitor peptide", "conditions": "not given"}
{"molecule": "NVVFVIDKSGSMSG (Synthetic peptide in the in vitro assay)", "note": "[ITIH4 (274-287)]", "binding result": "binds"}
{"molecule": "TPHGIILDSVDAAFI (Synthetic peptide in the in vitro assay; also called Hemopexin (351-365))", "note": "[HPX (351-365)]", "binding result": "binds"}
{"molecule": "GSREIKSQQSEVTR (Synthetic peptide in the in vitro assay)", "note": "[SH3BGRL3 (13-26)]", "binding result": "binds"}
{"molecule": "GDRGMQLMHANAQR (Found as eluted natural peptide and tested as synthetic peptide; also called Interferon-gamma-inducible lysosomal thiol reductase (192-205))", "note": "[GILT (192-205)]", "binding result": "binds"}
{"molecule": "ETMKMRYEHIDHTFEIQ (Found as eluted natural peptide and tested as synthetic peptide)", "note": "[CYRB (359-375)]", "binding result": "binds"}
{"molecule": "EKLWFVPAKVEDSGHY (Found as eluted natural peptide and tested as synthetic peptide; also called Interleukin-1 receptor (79-94))", "note": "[IL-1R (79-94)]", "binding result": "binds"}
{"molecule": "GPHDVHVQIETSPPARN (Synthetic peptide in the in vitro assay)", "note": "[Fig1 (293-309)]", "binding result": "binds"}
{"molecule": "GPNNYYSFASQQQKPE (Found as eluted natural peptide and tested as synthetic peptide)", "note": "[PSMD8 (218-233)]", "binding result": "binds"}
